Data set [1] deals with FOXO1 (FLAG-tagged, transfected) (Homo sapiens) (UniProt Q12778). Put plainly: cell_activity. The settings on record: 3xIRS-LUC in primary rat adipocytes, data not shown.
Data set [2] concerns the target T1, FOXO1 (FLAG-tagged, full-length) (Homo sapiens, UniProt Q12778 SEQ:126-780).
T1 chain: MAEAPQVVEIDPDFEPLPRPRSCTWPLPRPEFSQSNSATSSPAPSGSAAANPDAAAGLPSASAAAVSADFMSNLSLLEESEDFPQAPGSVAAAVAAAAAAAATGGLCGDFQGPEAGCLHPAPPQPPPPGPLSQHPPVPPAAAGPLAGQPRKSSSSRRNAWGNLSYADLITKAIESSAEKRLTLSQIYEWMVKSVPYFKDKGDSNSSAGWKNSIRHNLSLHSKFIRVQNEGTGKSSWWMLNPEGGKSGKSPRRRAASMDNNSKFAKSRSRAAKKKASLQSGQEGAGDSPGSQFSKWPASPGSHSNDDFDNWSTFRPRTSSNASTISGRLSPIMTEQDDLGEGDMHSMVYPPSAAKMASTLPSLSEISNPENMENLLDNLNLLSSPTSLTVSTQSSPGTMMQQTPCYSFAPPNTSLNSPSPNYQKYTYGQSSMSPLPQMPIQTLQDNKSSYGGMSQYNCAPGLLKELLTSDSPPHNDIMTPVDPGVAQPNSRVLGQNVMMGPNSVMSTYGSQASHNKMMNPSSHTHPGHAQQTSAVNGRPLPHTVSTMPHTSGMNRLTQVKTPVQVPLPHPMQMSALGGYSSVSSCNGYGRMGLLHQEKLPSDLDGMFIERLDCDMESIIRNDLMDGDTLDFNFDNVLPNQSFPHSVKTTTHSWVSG
Put plainly: EMSA; competed by 100x and 200x unlabeled probe; supershift with anti-FLAG and anti-FOXO1 H-128, not N-18; 50 mM KCl, 1 mM EDTA, pH 7.9, poly(dI-dC), 25 C. The note with it: tags: FLAG; TnT reticulocyte lysate; label: 32P. On the procedure: (vi) In vitro Translation and Electrophoretic Mobility Shift Assay (EMSA)—In vitro translation of FOXO1 proteins and EMSA studies were performed as described (Armoni et al., 2003). The TnT SP6/T7-coupled reticulocyte lysate system (Promega, Madison Wis.) was used to generate in vitro translated FLAG-tagged FOXO1 proteins from the corresponding cDNA, and the resulting protein lysate was used in EMSA. Protein expression was confirmed by SDS-PAGE, followed by phosphorimaging analysis of proteins translated in the presence of ³⁵S-methionine (cell labeling grade; Amersham, Buckinghamshire, UK). In vitro translation reactions generated sufficient protein to use in EMSA studies. Sense and antisense PPARγ promoter-derived oligonucleotides were synthesized that correspond to bp 270-310 of hG2-587 (sense: […] TGGGT […]) (SEQ ID NO: 4); these were annealed and end-labeled with γ-³²P-ATP (6000 Ci/mmol; Amersham, Buckinghamshire, UK) in the presence of polynucleotide kinase. Protein-DNA binding reactions were assembled in a total volume of 20 μl, which included 4 μl of the in vitro translated FOXO1 lysate, radiolabeled probe (˜75,000 cpm), and 4 μg of poly(dI-dC) in a buffer containing 10 mM HEPES (pH 7.9), 1 mM dithiothreitol, 1 mM EDTA, 4% Ficoll, and 50 mM KCl. […] Gels were fixed in 10% acetic acid for 15 min, dried, and analyzed by phosphorimaging.

In data set [1], “3xIRS (three insulin response element repeats) in pGL2-LUC” had an activity (fold activation) of under 8.5.

B1: hPPARγ2 promoter bp 270-310 (dsDNA)
DNA 1: GACACTGAACATGTGGGTCACCGGCGAGACAGTGTGGCAA
DNA 2: TTGCCACACTGTCTCGCCGGTGACCCACATGTTCAGTGTC
Regarding B1, the binding result in data set [2] is on record as “binds”.

(Values after patent US20080248995, “Modulation of PPARgamma2 gene promoter by FOXO1” (Technion Research and Development Foundation Ltd., published 2008).)
